Reference: paper doi:10.1101/2022.07.04.498777 (bioRxiv, 2022)

Target: the molecule itself
Test: dynamic light scattering

B1: Peptide G37 (peptide)
peptide: SLLTEVETPIRNEWGCRCNDSSD
B1: binds.
